Test results: paper PMC4756693, “Structural analysis of disease-related TDP-43 D169G mutation: linking enhanced stability and caspase cleavage efficiency to protein accumulation”

Target: TDP-43 RRM1 (human, UniProt Q13148 101-191)
Assay: X-ray crystallography; crystals at pH 5.5, PEG 3350, ammonium acetate; Co-crystallization, protein:DNA 1:1.2; protein in 50 mM HEPES pH 7.5, 100 mM NaCl, 10 mM bME; hanging drop at room temperature (stated for RRM1/DNA). (TG)15 Kd
Conditions: protein: recombinant; tags: N-terminal His; single strand; 8 and 9 nt modelled in the two RRM1 complexes

Chain of TDP-43 RRM1 (Q13148 101-191): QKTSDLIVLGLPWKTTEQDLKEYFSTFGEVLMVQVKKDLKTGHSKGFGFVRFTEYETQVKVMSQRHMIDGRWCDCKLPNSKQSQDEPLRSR

GTTGAGCGTT (ssDNA, none) [10-nt ssDNA]: binds.
